The values that follow come from the RNAGym collection of RNA variant scans (doi:10.7554/elife.90254).

To fix the notation:
B1: OR4K15 (parent)
chain: GUUAACGGUCAUAGGCCAUGGAAACUAGGAGCACCAUUUCGCUGCCAGUGAAGAAAUGAACAAAGAAAAUCUGGGCCAGGCAGGCAUCAAAAGAAAUAGUCUUGCGCUCAACCAGAAAGUCUGUAAUCAUUUUAAGGGUA

In this data set the parent is B1. Put plainly: self-cleavage, relative activity (ratio to wild type); higher = more cleavage; in vitro, sequencing; the parent is a self-cleaving ribozyme.
With GUUAACGGUCAUAGGCCAUGGAAACUAGGAGCACCAUUUCGCUGCCAGUGAAGAAAUGAACAAGGAAAAUCUGGGCCAGGCAGGCAUCAAAAGAAAUCGUCUUGCGCUCAACCAGAAAGUCUGUAAUCAUUUUAAGGGUA [A64G A98C], the self-cleavage worked out at 1.73.

Turning to GUUAACGGUCAUAGGCCAUGGAAACUAGGAGCACCAUUUCGCUGCCAGUGAAGAAAUGAACAAGGAAUAUCUGGGCCAGGCAGGCAUCAAAAGAAAUAGUCUUGCGCUCAACCAGAAAGUCUGUAAUCAUUUUAAGGGUA [A64G A68U], the self-cleavage is 1.42.

In the case of GUUAACGGUCAUAGGCCAUGGAAACUAGGAGCACCAUUUCGCUGCCAGUGAAGAAAUGAACAAGGAAAAUCUGGGCCAGGCAGGCAUCAAAAGAAAUAGUCUUGCGCUCAACCAGAAAGUCUGUGAUCAUUUUAAGGGUA [A64G A125G], the self-cleavage is 0.28.

On to GUUAACGGUCAUAGGCCAUGGAAACUAGGAGCACCAUUUCGCUGCCAGUGAAGAAAUGAACAAGGAAAAUCUGGGCCAGGCAGGCAUCAAAAGAAAUAGUCUUGCGCUCAACCAGAAAGUCUGUUAUCAUUUUAAGGGUA [A64G A125U], for which the self-cleavage came to 2.92.

Turning to GUUAACGGUCAUAGGCCAUGGAAACUAGGAGCACCAUUUCGCUGCCAGUGAAGAAAUGAACAAGGAAAAUCUGGGCCAGGCAGGCAUCAAAAGUAAUAGUCUUGCGCUCAACCAGAAAGUCUGUAAUCAUUUUAAGGGUA [A64G A94U], the self-cleavage came to 1.61.

Take GUUAACGGUCAUAGGCCAUGGAAACUAGGAGCACCAUUUCGCUGCCAGUGAAGAAAUGAACAAGGAAAAUCUGGGCCAGGCAGGCAUCAAAAGGAAUAGUCUUGCGCUCAACCAGAAAGUCUGUAAUCAUUUUAAGGGUA [A64G A94G]: the self-cleavage is 1.74.

Take GUUAACGGUCAUAGGCCAUGGAAACUAGGAGCACCAUUUCGCUGCCAGUGAAGAAAUGAACAAGGAAAAUCUGGGCCAGGCAGGCAUCAAGAGAAAUAGUCUUGCGCUCAACCAGAAAGUCUGUAAUCAUUUUAAGGGUA [A64G A91G]: the self-cleavage came out at 1.33.

GUUAACGGUCAUAGGCCAUGGAAACUAGGAGCACCAUUUCGCUGCCAGUGAAGAAAUGAACAAGGAAAAUCUGGGCCAGGCAGGCAUCAAAAGAAAUAGUCUUGCGCUCAACCAGAAAGUCUGUAAUCAUUUUGAGGGUA [A64G A134G]: the self-cleavage worked out at 1.41.

Consider GUUAACGGUCAUAGGCCAUGGAAACUAGGAGCACCAUUUCGCUGCCAGUGAAGAAAUGAACAAGGAAAAUCUGGGCCAGGCAGGCAUCAAAAGAACUAGUCUUGCGCUCAACCAGAAAGUCUGUAAUCAUUUUAAGGGUA [A64G A96C], for which the self-cleavage was determined as 0.76.

Take GUUAACGGUCAUAGGCCAUGGAAACUAGGAGCACCAUUUCGCUGCCAGUGAAGAAAUGAACAAGGAAAAUCUGGGCCAGGCAGGCAUCAAAAGAAAUAGUCUUGCGCUCAACCAGGAAGUCUGUAAUCAUUUUAAGGGUA [A64G A116G]: the self-cleavage came to 0.61.

In the case of GUUAACGGUCAUAGGCCAUGGAAACUAGGAGCACCAUUUCGCUGCCAGUGAAGAAAUGAACAAGGAAAAUCUGGGCCGGGCAGGCAUCAAAAGAAAUAGUCUUGCGCUCAACCAGAAAGUCUGUAAUCAUUUUAAGGGUA [A64G A78G], the self-cleavage was found to be 0.28.

Regarding GUUAACGGUCAUAGGCCAUGGAAACUAGGAGCACCAUUUCGCUGCCAGUGAAGAAAUGAACAAGGAAAAUCUGGGCCAGGCAGGCAUCAAAAGAAAUAGUCUUGCGCUCUACCAGAAAGUCUGUAAUCAUUUUAAGGGUA [A64G A110U], the self-cleavage came to 1.1.

GUUAACGGUCAUAGGCCAUGGAAACUAGGAGCACCAUUUCGCUGCCAGUGAAGAAAUGAACAAGGAAAAUCUGGGCCAGGCAGGCAUCAAAAGAAAUAGUCUUGCGCUCAACCAGAACGUCUGUAAUCAUUUUAAGGGUA [A64G A118C]: the self-cleavage was 0.2.

Regarding GUUAACGGUCAUAGGCCAUGGAAACUAGGAGCACCAUUUCGCUGCCAGUGAAGAAAUGAACAAGGAAAAUCUGGGCCAGGCAGGCAUCAAAAGAAAUAGUCUUGCGCUCAACCAGAAAGUCUGUACUCAUUUUAAGGGUA [A64G A126C], the self-cleavage was 1.16.

For the variant GUUAACGGUCAUAGGCCAUGGAAACUAGGAGCACCAUUUCGCUGCCAGUGAAGAAAUGAACAAGGAAAAUCUGGGCCAGGCAGGCAUCAAAAGAAAUAGUCUUGCGCUCAACCAGAAAGUCUGUAAUCGUUUUAAGGGUA [A64G A129G], the self-cleavage worked out at 1.14.

For GUUAACGGUCAUAGGCCAUGGAAACUAGGAGCACCAUUUCGCUGCCAGUGAAGAAAUGAACAAGGAAAAUCUGGGCCAGGCAGGCAUCAAAAGAAAUAGUCUUGCGCUCAACCAGAAAGUCUGUAAUCCUUUUAAGGGUA [A64G A129C], the self-cleavage was 1.8.

Regarding GUUAACGGUCAUAGGCCAUGGAAACUAGGAGCACCAUUUCGCUGCCAGUGAAGAAAUGAACAAGGAAAAUCUGGGCCAGGCAGGCAUCAAAAGAAAUAGUCUUGCGCUCAACCAGAAAGUCUGUAAUCUUUUUAAGGGUA [A64G A129U], the self-cleavage amounted to 0.99.

Turning to GUUAACGGUCAUAGGCCAUGGAAACUAGGAGCACCAUUUCGCUGCCAGUGAAGAAAUGAACAAGGAAAAUCUGGGCCAGGCAGGCUUCAAAAGAAAUAGUCUUGCGCUCAACCAGAAAGUCUGUAAUCAUUUUAAGGGUA [A64G A86U], the self-cleavage was 2.21.

Regarding GUUAACGGUCAUAGGCCAUGGAAACUAGGAGCACCAUUUCGCUGCCAGUGAAGAAAUGAACAAGGAAAAUCUGGGCCAGGCAGGCAUCUAAAGAAAUAGUCUUGCGCUCAACCAGAAAGUCUGUAAUCAUUUUAAGGGUA [A64G A89U], the self-cleavage is 2.18.

For the variant GUUAACGGUCAUAGGCCAUGGAAACUAGGAGCACCAUUUCGCUGCCAGUGAAGAAAUGAACAAGGAAAAUCUGGGCCAGGCAGGCAUCAAAAGAAAUAGUCUUGCGCUCAACCUGAAAGUCUGUAAUCAUUUUAAGGGUA [A64G A114U], the self-cleavage is 0.1.

On to GUUAACGGUCAUAGGCCAUGGAAACUAGGAGCACCAUUUCGCUGCCAGUGAAGAAAUGAACAAGGAAAAUCUGGGCCAGGCAGGCAUCAAAAGAAAUAGUCUUGCGCUCAACCGGAAAGUCUGUAAUCAUUUUAAGGGUA [A64G A114G], for which the self-cleavage turned out to be 0.31.
